In patent US5783421:

How the values were obtained:
[1] = target: Factor Xa; assay: inhibition of FXa in the prothrombinase complex assay (250 pM FXa, 2.67 µM prothrombin)
[2] = target: Factor Xa; assay: modified prothrombinase complex assay (50 pM FXa, 1.35 µM prothrombin)
[3] = target: Factor Xa

- Ki [1]: 0.072 nM
- Ki [2]: 0.12 nM
- IC50, generation of thrombin from prothrombin by FXa in a prothrombinase complex [3]: 0.19 nM
Substance: naturally occurring FXa inhibitor isolated from dilute leech saliva (DLS) of Hirudo medicinalis
